This note sets out measurements from patent US20210145828A1 (RUTGERS THE STATE UNIVERSITY OF NEW JERSEY, published 2021).

In this assay the target is T1, Gα12 (human, UniProt Q03113 1-381).
T1 sequence: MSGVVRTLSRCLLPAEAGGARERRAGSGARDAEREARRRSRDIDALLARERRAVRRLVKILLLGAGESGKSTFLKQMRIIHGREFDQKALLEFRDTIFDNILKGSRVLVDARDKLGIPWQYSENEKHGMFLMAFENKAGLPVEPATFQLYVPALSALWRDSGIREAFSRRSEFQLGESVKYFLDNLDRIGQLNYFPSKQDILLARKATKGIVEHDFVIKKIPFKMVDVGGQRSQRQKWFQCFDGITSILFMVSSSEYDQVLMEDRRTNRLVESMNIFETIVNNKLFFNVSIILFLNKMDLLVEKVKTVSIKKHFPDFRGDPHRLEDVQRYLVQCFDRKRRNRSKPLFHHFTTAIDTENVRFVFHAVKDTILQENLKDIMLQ
The assay can be described thus: cell-based or functional assay.

B1: M3-muscarinic acetylcholine receptor (M3R) (receptor)
chain: not shown
Consider B1, for which the “SRE-luciferase reporter activity after carbachol stimulation (10 µM, 6 hours)” value came to 76.
